This passage reports stoichiometry N results from PMC13148777.

Test [1] has as its target HAdV-D10 fiber protein (human adenovirus D 10 (HAdV-D10)). Kind of test: cryo-EM structure; purified HAdV-D10 virions; symmetry expansion, focused classification and refinement of penton and fiber shaft without symmetry (C1); 4.6 Å global, fiber shaft about 10 Å; AlphaFold3 fiber-penton model fitted as a rigid body.
Test [2] concerns the target HAdV-D10 penton base (human adenovirus D 10 (HAdV-D10)). The description is as above.

In general, stoichiometry N refers to a count of units in the complex or per binding partner. The substance “HAdV-D10 fiber protein (natural protein)” displayed a stoichiometry N in test [1] of 3.
In test [2], HAdV-D10 penton base (natural protein) showed a stoichiometry N of 5.
